Reference: the supplement of paper PMC10567573

B1: NR2F2 (parent)
chain: NIPFFPDLQITDQVALLRLTWSEL

Variants of: B1
Test: protein stability index of a GFP-peptide fusion (GPS, HEK-293T) (PSI 1-6); higher = more stable
Details: c terminus: a fixed tail appended
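Also: lentivirally expressed fusions sorted by FACS into six bins by GFP to DsRed ratio, PSI derived from sequencing read proportions per bin multiplied by bin number.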

| Variant | protein stability index |
| --- | --- |
| NIPFFPDLQITDQPALLRLTWSEL | 1.87 |
| NIPFFPDLQITDQAALLRLTWSEL | 1.7 |
| NIPFFPDLQITDQQALLRLTWSEL | 1.99 |
| NIPFFPDLQITDQIALLRLTWSEL | 2.81 |
| NIPFFPDLQITDQYALLRLTWSEL | 2.03 |
| NIPFFPDLQITDQFALLRLTWSEL | 2.04 |
| NIPFFPDLQITDQSALLRLTWSEL | 1.74 |
| NIPFFPDLQITDQMALLRLTWSEL | 2.14 |
| NIPFFPDLQITDQNALLRLTWSEL | 1.89 |
| NIPFFPDLQITDQGALLRLTWSEL | 1.45 |
| NIPFFPDLQITDQRALLRLTWSEL | 1.78 |
| NIPFFPDLQITDQLALLRLTWSEL | 2.72 |
| NIPFFPDLQITDQTALLRLTWSEL | 2.38 |
| NIPFFPDLQITDQCALLRLTWSEL | 3.12 |
| NIPFFPDLQITDQWALLRLTWSEL | 3.25 |
| NIPFFPDLQITDQHALLRLTWSEL | 1.81 |
| NIPFFPDLQITDQDALLRLTWSEL | 1.57 |
| NIPFFPDLQITDQKALLRLTWSEL | 2.13 |
| NIPFFPDLQITDQEALLRLTWSEL | 1.9 |
| NIPFFPDLQITDQVALLGLTWSEL | 2.25 |
| NIPFFPDLQITDQVALLALTWSEL | 2.33 |
| NIPFFPDLQITDQVALLNLTWSEL | 2.45 |
| NIPFFPDLQITDQVALLTLTWSEL | 2.18 |
| NIPFFPDLQITDQVALLLLTWSEL | 2.89 |

| Variant | protein stability index |
| --- | --- |
| NIPFFPDLQITDQVALLWLTWSEL | 3.72 |
| NIPFFPDLQITDQVALLYLTWSEL | 2.75 |
| NIPFFPDLQITDQVALLHLTWSEL | 1.39 |
| NIPFFPDLQITDQVALLPLTWSEL | 2.21 |
| NIPFFPDLQITDQVALLVLTWSEL | 2.27 |
| NIPFFPDLQITDQVALLSLTWSEL | 2.13 |
| NIPFFPDLQITDQVALLKLTWSEL | 2.52 |
| NIPFFPDLQITDQVALLMLTWSEL | 2.28 |
| NIPFFPDLQITDQVALLFLTWSEL | 2.89 |
| NIPFFPDLQITDQVALLILTWSEL | 3.87 |
| NIPFFPDLQITDQVALLQLTWSEL | 2.18 |
| NIPFFPDLQITDQVALLCLTWSEL | 2.63 |
| NIPFFPDLQITDQVALLDLTWSEL | 1.54 |
| NIPFFPDLQITDQVALLELTWSEL | 2.63 |
| NIPFFPDLQITDQVAALRLTWSEL | 2.41 |
| NIPFFPDLQITDQVAWLRLTWSEL | 1.65 |
| NIPFFPDLQITDQVAILRLTWSEL | 2.59 |
| NIPFFPDLQITDQVADLRLTWSEL | 2.02 |
| NIPFFPDLQITDQVAFLRLTWSEL | 2.62 |
| NIPFFPDLQITDQVAGLRLTWSEL | 2.02 |
| NIPFFPDLQITDQVAKLRLTWSEL | 1.61 |
| NIPFFPDLQITDQVAMLRLTWSEL | 3.26 |
| NIPFFPDLQITDQVASLRLTWSEL | 2.1 |
| NIPFFPDLQITDQVARLRLTWSEL | 1.84 |

| Variant | protein stability index |
| --- | --- |
| NIPFFPDLQITDQVAHLRLTWSEL | 1.67 |
| NIPFFPDLQITDQVATLRLTWSEL | 3.48 |
| NIPFFPDLQITDQVACLRLTWSEL | 2.65 |
| NIPFFPDLQITDQVAELRLTWSEL | 1.63 |
| NIPFFPDLQITDQVAPLRLTWSEL | 1.86 |
| NIPFFPDLQITDQVAVLRLTWSEL | 2.34 |
| NIPFFPDLQITDQVANLRLTWSEL | 2.03 |
| NIPFFPDLQITDQVAQLRLTWSEL | 2.33 |
| NIPFFPDLQITDQVALLRLTHSEL | 2 |
| NIPFFPDLQITDQVALLRLTKSEL | 2.35 |
| NIPFFPDLQITDQVALLRLTESEL | 2.78 |
| NIPFFPDLQITDQVALLRLTTSEL | 1.79 |
| NIPFFPDLQITDQVALLRLTVSEL | 2.4 |
| NIPFFPDLQITDQVALLRLTISEL | 1.65 |
| NIPFFPDLQITDQVALLRLTPSEL | 2.42 |
| NIPFFPDLQITDQVALLRLTRSEL | 2.14 |
| NIPFFPDLQITDQVALLRLTLSEL | 2.08 |
| NIPFFPDLQITDQVALLRLTGSEL | 2.08 |
| NIPFFPDLQITDQVALLRLTSSEL | 2.36 |
| NIPFFPDLQITDQVALLRLTYSEL | 1.92 |
| NIPFFPDLQITDQVALLRLTASEL | 2.49 |
| NIPFFPDLQITDQVALLRLTCSEL | 1.87 |
| NIPFFPDLQITDQVALLRLTQSEL | 2.21 |
| NIPFFPDLQITDQVALLRLTFSEL | 2.36 |

| Variant | protein stability index |
| --- | --- |
| NIPFFPDLQITDQVALLRLTNSEL | 2.37 |
| NIPFFPDLQITDQVALLRLTDSEL | 3.41 |
| NIPFFPDLQITDQVALLRLTMSEL | 2 |
| NIPFFPDLQITDQVALLRLTWEEL | 2.1 |
| NIPFFPDLQITDQVALLRLTWFEL | 3.38 |
| NIPFFPDLQITDQVALLRLTWHEL | 2.71 |
| NIPFFPDLQITDQVALLRLTWIEL | 2.24 |
| NIPFFPDLQITDQVALLRLTWGEL | 3.17 |
| NIPFFPDLQITDQVALLRLTWKEL | 1.68 |
| NIPFFPDLQITDQVALLRLTWAEL | 2.17 |
| NIPFFPDLQITDQVALLRLTWDEL | 2.4 |
| NIPFFPDLQITDQVALLRLTWLEL | 3.32 |
| NIPFFPDLQITDQVALLRLTWCEL | 3.38 |
| NIPFFPDLQITDQVALLRLPWSEL | 2.02 |
| NIPFFPDLQITDQVALLRLVWSEL | 1.95 |
| NIPFFPDLQITDQVALLRLWWSEL | 2.46 |
| NIPFFPDLQITDQVALLRLIWSEL | 4.49 |
| NIPFFPDLQITDQVALLRLHWSEL | 2.49 |
| NIPFFPDLQITDQVALLRLKWSEL | 1.59 |
| NIPFFPDLQITDQVALLRLMWSEL | 1.89 |
| NIPFFPDLQITDQVALLRLFWSEL | 1.47 |
| NIPFFPDLQITDQVALLRLYWSEL | 2.69 |
| NIPFFPDLQITDQVALLRLSWSEL | 3.1 |
| NIPFFPDLQITDQVALLRLNWSEL | 1.56 |

| Variant | protein stability index |
| --- | --- |
| NIPFFPDLQITDQVALLRLAWSEL | 1.83 |
| NIPFFPDLQITDQVALLRLCWSEL | 2.16 |
| NIPFFPDLQITDQVALLRLEWSEL | 1.96 |
| NIPFFPDLQITDQVALLRLQWSEL | 2.08 |
| NIPFFPDLQITDQVALLRLDWSEL | 1.81 |
| NIPFFPDLQITDQVALLRLGWSEL | 2.23 |
| NIPFFPDLQITDQVALLRLRWSEL | 2.21 |
| NIPFFPDLQITDQVALLRLLWSEL | 2.23 |
| NIPFFPDLQITDIVALLRLTWSEL | 4.15 |
| NIPFFPDLQITDSVALLRLTWSEL | 2.33 |
| NIPFFPDLQITDEVALLRLTWSEL | 2.2 |
| NIPFFPDLQITDMVALLRLTWSEL | 4.27 |
| NIPFFPDLQITDAVALLRLTWSEL | 2.75 |
| NIPFFPDLQITDDVALLRLTWSEL | 1.85 |
| NIPFFPDLQITDKVALLRLTWSEL | 2.41 |
| NIPFFPDLQITDFVALLRLTWSEL | 1.69 |
| NIPFFPDLQITDNVALLRLTWSEL | 1.97 |
| NIPFFPDLQITDCVALLRLTWSEL | 3.12 |
| NIPFFPDLQITDHVALLRLTWSEL | 3.09 |
| NIPFFPDLQITDVVALLRLTWSEL | 2.66 |
| NIPFFPDLQITDGVALLRLTWSEL | 1.29 |
| NIPFFPDLQITDTVALLRLTWSEL | 3.06 |
| NIPFFPDLQITDRVALLRLTWSEL | 1.92 |
| NIPFFPDLQITDWVALLRLTWSEL | 2.93 |

| Variant | protein stability index |
| --- | --- |
| NIPFFPDLQITDPVALLRLTWSEL | 2.57 |
| NIPFFPDLQITDLVALLRLTWSEL | 4.11 |
| NIPFFPDLQITDQVWLLRLTWSEL | 2.03 |
| NIPFFPDLQITDQVKLLRLTWSEL | 1.99 |
| NIPFFPDLQITDQVMLLRLTWSEL | 2.71 |
| NIPFFPDLQITDQVRLLRLTWSEL | 2.08 |
| NIPFFPDLQITDQVVLLRLTWSEL | 2.22 |
| NIPFFPDLQITDQVQLLRLTWSEL | 1.9 |
| NIPFFPDLQITDQVELLRLTWSEL | 1.55 |
| NIPFFPDLQITDQVHLLRLTWSEL | 1.57 |
| NIPFFPDLQITDQVGLLRLTWSEL | 1.19 |
| NIPFFPDLQITDQVCLLRLTWSEL | 2.07 |
| NIPFFPDLQITDQVYLLRLTWSEL | 1.67 |
| NIPFFPDLQITDQVDLLRLTWSEL | 1.92 |
| NIPFFPDLQITDQVPLLRLTWSEL | 1.69 |
| NIPFFPDLQITDQVLLLRLTWSEL | 2.58 |
| NIPFFPDLQITDQVNLLRLTWSEL | 2.38 |
| NIPFFPDLQITDQVTLLRLTWSEL | 2.41 |
| NIPFFPDLQITDQVSLLRLTWSEL | 2 |
| NIPFFPDLQITDQVFLLRLTWSEL | 3.86 |
| NIPFFPDLQITDQVILLRLTWSEL | 3.62 |
| NIPFFPDLQITDQVALLRCTWSEL | 2.44 |
| NIPFFPDLQITDQVALLRSTWSEL | 2.15 |
| NIPFFPDLQITDQVALLRRTWSEL | 2.08 |

| Variant | protein stability index |
| --- | --- |
| NIPFFPDLQITDQVALLRQTWSEL | 2.07 |
| NIPFFPDLQITDQVALLRITWSEL | 2.3 |
| NIPFFPDLQITDQVALLRETWSEL | 2.04 |
| NIPFFPDLQITDQVALLRDTWSEL | 2.28 |
| NIPFFPDLQITDQVALLRHTWSEL | 1.53 |
| NIPFFPDLQITDQVALLRKTWSEL | 2.12 |
| NIPFFPDLQITDQVALLRATWSEL | 1.99 |
| NIPFFPDLQITDQVALLRPTWSEL | 2.24 |
| NIPFFPDLQITDQVALLRTTWSEL | 2.23 |
| NIPFFPDLQITDQVALLRGTWSEL | 2.35 |
| NIPFFPDLQITDQVALLRNTWSEL | 2.4 |
| NIPFFPDLQITDQVALLRYTWSEL | 1.85 |
| NIPFFPDLQITDQVALLRFTWSEL | 2.73 |
| NIPFFPDLQITDQVALLRWTWSEL | 2.23 |
| NIPFFPDLQITDQVALLRMTWSEL | 1.76 |
| NIPFFPDLQITDQVALLRVTWSEL | 3.94 |
| NIPFFPDLQITPQVALLRLTWSEL | 4.7 |
| NIPFFPDLQITMQVALLRLTWSEL | 2.37 |
| NIPFFPDLQITWQVALLRLTWSEL | 3.74 |
| NIPFFPDLQITRQVALLRLTWSEL | 1.66 |
| NIPFFPDLQITVQVALLRLTWSEL | 4.16 |
| NIPFFPDLQITTQVALLRLTWSEL | 2.86 |
| NIPFFPDLQITNQVALLRLTWSEL | 2.42 |
| NIPFFPDLQITSQVALLRLTWSEL | 3.57 |

| Variant | protein stability index |
| --- | --- |
| NIPFFPDLQITYQVALLRLTWSEL | 4.16 |
| NIPFFPDLQITDQVALSRLTWSEL | 1.79 |
| NIPFFPDLQITDQVALYRLTWSEL | 2.15 |
| NIPFFPDLQITDQVALNRLTWSEL | 2.59 |
| NIPFFPDLQITDQVALVRLTWSEL | 3.46 |
| NIPFFPDLQITDQVALKRLTWSEL | 2.43 |
| NIPFFPDLQITDQVALTRLTWSEL | 3.49 |
| NIPFFPDLQITDQVALIRLTWSEL | 3.52 |
| NIPFFPDLQITDQVALHRLTWSEL | 1.54 |
| NIPFFPDLQITDQVALWRLTWSEL | 1.92 |
| NIPFFPDLQITDQVALERLTWSEL | 2.26 |
| NIPFFPDLQITDQVALGRLTWSEL | 1.92 |
| NIPFFPDLQITDQVALCRLTWSEL | 1.79 |
| NIPFFPDLQITDQVALDRLTWSEL | 2.08 |
| NIPFFPDLQITDQVALFRLTWSEL | 1.46 |
| NIPFFPDLQITDQVALPRLTWSEL | 2.37 |
| NIPFFPDLQITDQVALRRLTWSEL | 1.98 |
| NIPFFPDLQITDQVALQRLTWSEL | 1.99 |
| NIPFFPDLQITDQVALMRLTWSEL | 2.16 |
| NIPFFPDLQITDQVALARLTWSEL | 1.49 |
